Measured values: PMC7355005 (Proceedings of the National Academy of Sciences of the …, 2020)
Several values for one entry are separate records, joined by “and”; a condition that tells them apart may be missing. Equal entries are not always repeated.

What was measured:
[1] = molecular target: Human hemoglobin (Hb) (human, UniProt P69905;P68871); assay: mass photometry
[2] = molecular target: the molecule itself; assay: mass photometry
[3] = molecular target: the molecule itself; assay: native MS

Chain of Human hemoglobin (Hb) (P69905 whole entry, chain 1 of 2): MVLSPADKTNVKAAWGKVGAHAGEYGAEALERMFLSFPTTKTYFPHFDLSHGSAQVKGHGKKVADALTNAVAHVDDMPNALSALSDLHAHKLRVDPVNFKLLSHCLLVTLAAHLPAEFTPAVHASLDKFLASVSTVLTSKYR
Chain of Human hemoglobin (Hb) (P68871 whole entry, chain 2 of 2): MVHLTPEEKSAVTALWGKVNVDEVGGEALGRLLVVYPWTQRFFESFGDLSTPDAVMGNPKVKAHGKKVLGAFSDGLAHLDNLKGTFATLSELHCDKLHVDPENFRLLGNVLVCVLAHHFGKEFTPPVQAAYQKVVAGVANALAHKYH

B1: Haptoglobin 1-1 (Hp 1-1), dimer of two α1β units (complex)
chain 1: VDSGNDVTDIADDGCPKPPEIAHGYVEHSVRYQCKNYYKLRTEGDGVYTLNNEKQWINKAVGDKLPECEAVCGKPKNPANPVQ
chain 2: ILGGHLDAKGSFPWQAKMVSHHNLTTGATLINEQWLLTTAKNLFLNHSENATAKDIAPTLTLYVGKKQLVEIEKVVLHPNYSQVDIGLIKLKQKVSVNERVMPICLPSKDYAEVGRVGYVSGWGRNANFKFTDHLKYVMLPVADQDQCIRHYEGSTVPEKKTPKSPVGVQPILNEHTFCAGMSKYQEDTCYGDAGSAFAVHDLEEDTWYATGILSFDKSCAVAEYGVYVKVTSIQDWVQKTIAEN
modifications: N-glycans at Asn184, Asn207, Asn211 and Asn241
- stoichiometry N [1]: 2 Hb(αβ) dimers per Hp 1-1 dimer
- stoichiometry N [2]: 2 Hp (αβ) units

B2: Haptoglobin 2-2 (Hp 2-2), cyclic (α2)n(β)n oligomers (complex)
chain 1: VDSGNDVTDIADDGCPKPPEIAHGYVEHSVRYQCKNYYKLRTEGDGVYTLNDKKQWINKAVGDKLPECEADDGCPKPPEIAHGYVEHSVRYQCKNYYKLRTEGDGVYTLNNEKQWINKAVGDKLPECEAVCGKPKNPANPVQ
chain 2: ILGGHLDAKGSFPWQAKMVSHHNLTTGATLINEQWLLTTAKNLFLNHSENATAKDIAPTLTLYVGKKQLVEIEKVVLHPNYSQVDIGLIKLKQKVSVNERVMPICLPSKDYAEVGRVGYVSGWGRNANFKFTDHLKYVMLPVADQDQCIRHYEGSTVPEKKTPKSPVGVQPILNEHTFCAGMSKYQEDTCYGDAGSAFAVHDLEEDTWYATGILSFDKSCAVAEYGVYVKVTSIQDWVQKTIAEN
modifications: N-glycans at Asn184, Asn207, Asn211 and Asn241
- stoichiometry N [3]: < 7 Hp (αβ) units
- stoichiometry N [1]: 1 Hb(αβ) dimer per Hp (αβ) monomer

B3: Haptoglobin 2-1 (Hp 2-1) oligomers from the serum of a single heterozygote donor (complex)
chain 1: VDSGNDVTDIADDGCPKPPEIAHGYVEHSVRYQCKNYYKLRTEGDGVYTLNNEKQWINKAVGDKLPECEAVCGKPKNPANPVQ
chain 2: VDSGNDVTDIADDGCPKPPEIAHGYVEHSVRYQCKNYYKLRTEGDGVYTLNDKKQWINKAVGDKLPECEADDGCPKPPEIAHGYVEHSVRYQCKNYYKLRTEGDGVYTLNNEKQWINKAVGDKLPECEAVCGKPKNPANPVQ
chain 3: ILGGHLDAKGSFPWQAKMVSHHNLTTGATLINEQWLLTTAKNLFLNHSENATAKDIAPTLTLYVGKKQLVEIEKVVLHPNYSQVDIGLIKLKQKVSVNERVMPICLPSKDYAEVGRVGYVSGWGRNANFKFTDHLKYVMLPVADQDQCIRHYEGSTVPEKKTPKSPVGVQPILNEHTFCAGMSKYQEDTCYGDAGSAFAVHDLEEDTWYATGILSFDKSCAVAEYGVYVKVTSIQDWVQKTIAEN
modifications: N-glycans at Asn184, Asn207, Asn211 and Asn241
- stoichiometry N [3]: 3 Hp (αβ) units and 4 Hp (αβ) units and 5 Hp (αβ) units
